Target: human CD73 on human cell lines (human) (UniProt P21589)
Test: cell-based or functional assay

Chain of human CD73 on human cell lines (human) (P21589 27-549): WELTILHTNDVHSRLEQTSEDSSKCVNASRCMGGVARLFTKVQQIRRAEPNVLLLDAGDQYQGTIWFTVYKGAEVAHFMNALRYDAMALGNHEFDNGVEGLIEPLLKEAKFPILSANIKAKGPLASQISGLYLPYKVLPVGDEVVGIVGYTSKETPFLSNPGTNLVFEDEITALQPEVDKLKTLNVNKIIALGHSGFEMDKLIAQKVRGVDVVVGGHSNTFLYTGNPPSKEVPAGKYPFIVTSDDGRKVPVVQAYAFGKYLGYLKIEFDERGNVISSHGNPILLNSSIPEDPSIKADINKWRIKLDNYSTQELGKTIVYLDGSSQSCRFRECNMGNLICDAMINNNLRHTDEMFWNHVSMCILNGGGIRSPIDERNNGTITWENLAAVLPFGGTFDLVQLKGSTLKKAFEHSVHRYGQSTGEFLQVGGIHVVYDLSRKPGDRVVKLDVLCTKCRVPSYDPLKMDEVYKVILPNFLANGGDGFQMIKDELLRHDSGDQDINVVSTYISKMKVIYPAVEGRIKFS

internalization T1/2, Calu6: 36 min | internalization T1/2, NCI-H292: 16.6 min | internalization Ymax, Calu6: 75.6% | internalization Ymax, NCI-H292: 78.4%
B1: mAb-CD73.4-IgG2 (antibody, V domains shown, not shown: a dimerising Fc or GST)
VH: QVQLVESGGGVVQPGRSLRLSCAASGFTFSNYGMHWVRQAPGKGLEWVAVILYDGSNKYYPDSVKGRFTISRDNSKNTLYLQMNSLRAEDTAVYYCARGGSSWYPDSFDIWGQGTMVTVSS
VL: DIQMTQSPSSLSASVGDRVTITCRASQGISSWLAWYQQKPEKAPKSLIYAASSLQSGVPSRFSGSGSGTDFTLTISSLQPEDFATYYCQQYNSYPLTFGGGTKVEIKR

Source: patent US20200299400A1
